Consider 41 sequences from the nanobody polyreactivity screen of Harvey et al. (2022).

The series is described as follows: yeast display, Sf9 membrane polyspecificity reagent, FACS + sequencing; frameworks hold sequencing errors. The gist of the method:
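Polyreactivity labels are assigned by the sorting gate from which each nanobody was recovered. The gates were low and high (top ~1%), set on anti-HA fluorescence for expression and streptavidin fluorescence for reagent binding. Before sorting, galactose-induced (36–48 hours) yeast display cells were stained for 1 hour at 4 °C with 10% biotinylated, detergent-solubilized Sf9 membrane reagent.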
As to “QVQLVESCGGLVQAGGSLRLSCAASGRTIASYAMGWYRQAPGKERELVAAITSGGSTYYADSVKGRFTISRDNAMNTVYLQMNSLKPEDTAVYYCARKHAIWRGYDYWGQGTQVTVSS”, the “polyreactivity (PSR sort gate)” value is “low polyreactivity”. To “QVQLQESRGGLVQEGGSLRLSSAASGNISPPAHMGWYRPAPGKQRELVASIGNGRTTNYADSVKGRFTISRHNANNTVYLQMYSLKPDETAVYYCSAVRYEYNPYDYWGQGTQVTVSS” belongs “low polyreactivity”; to “QVQLVESGGGLVQAGGSLRLSCAASGRTFSKNVMGWYRQAPGKEREFVARISDSGVGTYYADSVKGRFTISRDNAKNTVYLQMNSLKPEDTAVYYCDKQYGGRYGYWGQGTQVTVSS”, “low polyreactivity”; to “QVQLVESGGGLVQAGRSLRLSCAASGSTYGYYAMGWSRQAPGKERELVAAISSTGGRTYYADSVKGRFTISRDNAKNTVYVQMNSLKPEDTAVYYCAARQLSSHYDYWGQGPQVTVSS”, “low polyreactivity”. Then “QVQLVESGGGLVQAGGSLRLSCAASGSTFFPYAMGWYRQAPGKERELVAAIRWSGGRTYYADSVKGRFTISRDNAKNTVYLQMNSLNPEDTAVYYCAAAKYLDYDYWGQGTQVTVSS”, with “high polyreactivity”; and “QVQLVESGGGLVQEGGSLRLSCAASGYIFWSNTMGWYRQAPGKERELVAAISQSTASTYYADSVKGRFTISRDNAKNTVYLQMNSLKPDDTAVYYCAADGWSRSWGYWVHYGYWGQGTQVTVSS”, with “low polyreactivity”; and “QVQLVESGGGLVQAGGSLRLSCAASGRTIRGNAMGWYRQAPGKERELVAAITRSGASTTYADSVKGRFTISRDNAKNTVYLQMNSLKPEDTAVYYCAARSGAVKYSSYYYWGQGTQVTVSS”, with “high polyreactivity”. With “QVQLVESGGGLVQAGGSLRLSCAASGSTFYIYAMGWYRQAPGQERELVATISWSGGSTYYADSVKGRFTISRDNAKNTVYLQMNSLKPEDTAVYYCAVRPGFGRSLWYGYWGQGTQVTVSS”, the “polyreactivity (PSR sort gate)” value is recorded as “high polyreactivity”. To “QVQLVDSGGGLVQAGGSLRLSCAASGSTFSHYTMGWYRQAPGKERELVAAINYGGASTYYADSVKGRFTISRDNAKNTVYLQMNSLKPEDTAVYYCAAANRPSEQDNYWGQGTQVTVSS” belongs “low polyreactivity”; to “QVQLVESGGGLVQAGGSLRLSCAASGSTFHLYTMGWSRQAPGKERELVAGISRRGGTTYYADSVKGRFTISRDNAKNTVYLQMNSLKPEDTAVYYCAAVYRTYGIGPNNYWGQGTQVTVSS”, “high polyreactivity”; to “QVQLVESGGGLVQAGGSLRLSCAASGRTFRLYALGWYRQAPGKERELVAAITRGGRTNYADSVTGRFTISRDNAKNTVYLQMNSLKPEDTAVYYCAARYVERHTDYYYWGQGTQVTVSS”, “low polyreactivity”. Then “QVQLVESGGGLVQAGGSLRLSCAASGSTFGTYGMGWSRQAPGKERESVADITSGGSTYYADSVKGRFTISRDNAKNTVYLQMNSLKPEDTAVYSCAASWFVWSTAVPYDYWGQGTQVTVSS”, with “low polyreactivity”; and “QFQLVESGGGLVQAGGSLRLSCAASGSTFRTYAMGWYRQAPRKERELVADITWRGGSKYYADSVKGRFTISRDNAKNTVYSQMNSLKPEDPAVYYCATDRGPEVVLYDYWGQGTQVTVSS”, with “low polyreactivity”.

On to “QDQLLESGGGLGQAGGSLRLSCAASGITFGRYAMGWYRQAPGKERELVAAITWGGGSTYYADSVKGRFTISRDNAKNTVYLQMNSLKPEDTAVYYCAARSYGRWFGGYDSWGQGTQVTVSS”, for which the “polyreactivity (PSR sort gate)” value is given as “high polyreactivity”. To “QVQLVESGGGLVQAGGSLRLSCAASGYTFTIYAMGWYRQAPGKQRELVAAITGRGGRTNYADSVKGRFTISRDNAKNTVYLQMNSLKPEDTAVYYCNAVTKVVYHGPYGYDYWGQGTQVTVSS” belongs “high polyreactivity”; to “QVQLQESGGGLVQAGGSLRLSCAASGIIFDNPNMGWYRQAPGKERELVATINSGATTNYADSVKGRFTISRDNENNTVYLQMNSLIPEDTAVYYCAVDLSPTYFYFWGQGTQVTVSS”, “high polyreactivity”; to “QVQLVESGGGLVQAGGSLRLSCAASGFIFDIYAMGWYRQAPGKERELVAAITWNSGSTHYADSVKGRITISRDNAKNTVYLQMNSLKPEDTAVYYCAADEVTYAYYPYDYWGQGTQVTVSS”, “low polyreactivity”. To “QVHLVESGGGLVQAGGSLRLSCAASGRIFADYAMGWYRQAPWKERELVADIRQSGGRTYYADSVKGRFTISRDYAKNTVDLQMNSLKPEDTAVYYCATDYGSWGDYSGKYDYWGQGTQVTVSS” belongs “low polyreactivity”. To “QVQLVESGAGLVQAGGSLRLSCAPSGSTFEDYAMGWYRQAPGKERELVAAISHIGGSTYYADSVKGRFTISRDNAKNTVYLQMNSLKPEDTAVYYCAKGGFSSKFDYWGQGTQVTVSS” belongs “low polyreactivity”; to “QVQLVESGGGLVQAGGSLRLSCAASGSTFIFYTLGWYRQAPGKERELVAAITSNGGSTYYADSVKGRFTISRDTAKKTVYLQMNSLKPEDTAVDYCAKKGVGQYDWGQGTQVTVSS”, “high polyreactivity”. Turning to “QVQLVESGGGLVQAGGSLRLSCAASGRTFLLYAMGWYRQAPGKERELVAAIRSSTVSTYYADSVKGRFTISRDNAKNTVYLQMNSLKPEDTAVYYCAASRPKYGPSGVHYNYWGQGTQVTVSS”, the “polyreactivity (PSR sort gate)” value is recorded as “high polyreactivity”. Then “QVQLVESGGRLGQAVGSLRLSCAASGSIFLQNAMGWYRQAPGKERELVAAITNGGSTNYADSVKGRCTISRDNAKNTVYLQINSLKPEDTAVYYCAAYPLYTGSYDRGGYWGLGTQVTVSS”, with “low polyreactivity”; and “QVQLVESGGGLVQAGGSLRLSCAASGRIFVGYAMGWYRQAPGKERELVAAINRSGSSTYYADSVKGRFTISRDYAKITVYLQMNSLKPEDTAVYYCNARSGNRYGPRYDYWGQGTQVTVSS”, with “high polyreactivity”. Take “QVQLVESGGGLVQAGGSLRLSSAASGGIFFIYVMGWYRQAPGKERELVAAISWSGGDTYYADSVQGRFTISRDNAKNTVYVQMNSLKPEDTAVYYCAARYYYLGTRYGYWGQGTQVTVSS”: the “polyreactivity (PSR sort gate)” value is reported as “low polyreactivity”. To “QVQLVESGGGLVQAGGSLRLSCAASGGIFDRYAMGWSRQAPGKERELVAVISGSVNTYADSVKGRFTISRDNAKNTFYLQMNSLKPEDTAVYYCATQFEGTSGFNYWGQGTQVTVSS” belongs “low polyreactivity”. To “QVQLVESGGGLVQAGGSLRLSCAASGSTFSDNAMGGYRQAAGKERELVAAISWTGGSTYADSVKGRFTISRDNAKNTVYLQMNRLKPEDTAVYYCAAGGDFDGNYWGQGTQVTVSS” belongs “low polyreactivity”; to “QVQLVESGGGLVQAGGSLRLSCAASGFTFGWYAMGWYRQAPGKERELVAAIRSDGSTYYADSVKGRFTISRDNAKNTVYLQMNSLKPEDTAVDYCAAVYYQRGWEFDYWGQGTQVTVSS”, “low polyreactivity”. On to “QVQLVESGGGLVQAGGSLRLSCAASGYIFGSYAMGWYRQAPGKERELVASITRVDSTNYADSVKGRFTISRDNAKNTVYLQMNSLKAEDTAVYYCAADITTPAYATYDYWGQGTQVTVSS”, for which the “polyreactivity (PSR sort gate)” value is given as “low polyreactivity”. In the case of “QVHLVESGGGLVQAGGSLRLSCAATGSIFRPYAMGWYRQAPGKERELVATITWRGGTTYYADSVKGRFTISRDNAKNTVILQMISLKPEDSAVYYCAAYVPFLTSAYDYWGHGTQVTVSS”, the “polyreactivity (PSR sort gate)” value is “low polyreactivity”. Then “QVQLVESGGGLVQAGGSLRLSCAASGSTFVGYAMVWYRQAPGKERELVAAISYSGGSTYYADSVKGRFTISRDNAKNTVYLQMNSLKPEDTAVYYCAAEWSRHYYSGPRYDSWGQGSQVTVSS”, with “low polyreactivity”; and “QVQLVESGGGLVQAGGSLRLSCAASGSTFWIYPMGWYRQAPGKERELVAAISNGDSTNYADSVKGRFTISRDNAKNTVYLQMNSLKPEDTAVYYCARQYRIFKTFKYDYWGQGTQVTVSS”, with “low polyreactivity”. Then “QVQLVESGGGLVQAGGSLRLSCAASGSTFRSNAMGWYRQAPGKERELVAGISRRGGSTYYADSVTGRVTISRDNAKNTVYLQMNSLKPEDTAVDYCAASSRSFIRVYYWGQGTQVTVSS”, with “high polyreactivity”; and “QVQLVESGGGLVQAGGSLRLSCAASGFTLYRYAMGWYRQAPGKERELVAAISKRGATSYYADSVKGRFTISRDNAKNTVYLQMNSLKPEDTAVYYCAATISRAYKPVKGHYYLGMDYWGQGTQVTVSS”, with “high polyreactivity”. Then “QVQLVESGGGLVQAGGSLRLSCAASGSTFDYNTMGWYRQAPGKERELVADITLRGASTYYADSVKGRFTISRDNAKNTVYLLMNSLKPEDTAVYYCNADYYWGTYANFDYWGQGTQVTVSS”, with “low polyreactivity”; and “QVQLVESGGGLVQAGGSLRLSCAASGRIFFENTMGWYRQAPGKERELVAAISSSGTTNYADSVKGRFTISRDNAKNTVYLQMNSLKPEDTAVYYCNAVLHGEQVGKYIAYVYWGQGTQVTVAS”, with “low polyreactivity”.

In the case of “QVQLVETGGRLGQAGGSLRLSCAASGRTFGYNAMGWYRQAPGKERELVAAISWSGTRTYYADSVKWRFTISRDNAKNTVYLQRNSLKPEDTAVYYCAARIAVYGGSYGWFDYWGQGTQVTVSS”, the “polyreactivity (PSR sort gate)” value is “high polyreactivity”. For the sequence “QVQLVESGGGLVQAGGSLRLSCAASGSTFSLYVMGWYRQAPGKEREFVATINWRTVSTYYADSVKGRFTISRDNAKKTVYLQMNSLIPEDTAVYYCNAVSYPPDGTYDYWGQGTQVTVSS”, the “polyreactivity (PSR sort gate)” value is on record as “low polyreactivity”. For the sequence “QVQLVESGGGLVQAGGSLRLSCAASGFIFSYYAMGLYRQAPGKERELVAAINWTGGSTYYADSVKGRFTISRDNAKNTVYLQMNSLKPEDTAVYYCAADSHLRGRSEDYWGQGTQVTVSS”, the “polyreactivity (PSR sort gate)” value was “high polyreactivity”. Then “QVQLVESGGGLVQAGGSLRLSCAASGIILYGYAMGWYRQAPGKERELVAAISRRGGITYYADSVKGRFTISRDNAKNTVYLQMNSLKPEDTAVYYCAADWYGYRQFHGYYWGQGTQVTVSS”, with “high polyreactivity”; and “QVQRVESGGGLVQAGGSLRLSCAASGSTFGNAMGWYRQAPGKERELVAAISSRGDRTYYADSVQGRFTISRDNAKNTVYLQMNSLKPEDTAVYYCAKDGYPNKYDYWGQGTQVTVSS”, with “high polyreactivity”; and “QVQLVESGGGLVQAGGSLRLSCAASGFIFWWYNMGWYRQAPGKERELVAAISGSGGSTYYADSVKGRFTISRDNAKNTVYLQMNSLKPEHTAVYYCAALFGTGQFYYRYDYWGQGTQVTVSS”, with “high polyreactivity”.
